Test results: the supplement of paper PMC12042874
± gives the uncertainty stated by the source.

Assay: amyloid nucleation score (Sup35N fusion, yeast selection) (log enrichment); library NNK3; higher = more nucleation; inactive = no reads after selection
How it was run: (§1)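 Yeast lacking psi expressed peptides of 20 random codons fused to Sup35N, received 100 μM copper sulfate for 24 hours, and were then grown for 7 days at 30°C on medium lacking adenine and uracil. Illumina sequencing of input and output plasmid inserts provided the reads. Nucleation scores are DiMSum log enrichments of output over input, centred on the mode of non-aggregating sequences. Any sequence with under 100 input reads was excluded.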

Substance | amyloid nucleation score
YYMLWSKCCEYSAHRN | inactive
YYSWCRFTNDYSCCYRAFFA | inactive
YYTFSVHSYGEFMRCLFIQH | inactive
YYTGCHSSVSC | inactive
YYVVGQPAASQK | inactive
YYYAFEFPFSYHERSALYYC | inactive

Assay: amyloid nucleation score (Sup35N fusion, yeast selection) (log enrichment); library NNK2; higher = more nucleation; inactive = no reads after selection
How it was run: as §1

Substance | amyloid nucleation score
AADKAICPVGGNTGHRSLGS | 0.691 ± 0.35
AADRFVAMKICVLCHLKQSL | 1.88 ± 0.25
AALCRMFWTAISYWCEWSLG | 0.157 ± 0.55
AANDMPMNSPIFSLGSDMPH | 1.01 ± 0.48
AANRPGTSC | 0.767 ± 0.74
AASRWTWC | 1.5 ± 0.16
ACDVNWLMNTIHQNNCCFAH | -0.716 ± 1.1
ACILSVYFS | 2.12 ± 0.15
ADCVSICVSYRRFHLAKYR | 2.73 ± 0.11
ADHVDAYSFRDNDLSYQVYL | 1.41 ± 0.46
ADIAYFRLVMLKHTIYPVHM | 1.82 ± 0.27
ADNFICIIETYSYILVWRSS | -0.552 ± 0.78
ADSCKVMKWDRRPLEDFNWC | -0.041 ± 0.19
ADSVLYNCVCRFSSVPQVLR | -0.263 ± 0.31
AEANLNFGLMDGAMSVKRAE | -0.329 ± 0.55
AESWVNYRGRDV | 0.472 ± 0.8
AETTFNIENDKTYIIYDCAE | -0.161 ± 0.39
AEWLINGISDGLDCVSFSNS | inactive
AEYRNDMAIEVSSSYCCGY | 3.43 ± 0.082
AFGNNDDLGARRYGMATPGR | 0.746 ± 0.62
AFLRFMKRRQLNLLKYAFCC | 4.01 ± 0.084
AFNCT | -0.684 ± 0.78
AFPLRTVISGN | 0.484 ± 0.8
AFPPE | -0.726 ± 1.1
AFPTKCNVRSMSMHRLLLLC | inactive
AFRFWFHGSMLVAHLSSWYY | 2.88 ± 0.083

Substance | amyloid nucleation score
AFSLCFRYYLPRVNASG | -0.147 ± 1.1
AFSMRVGDFEIHRFSVVFRR | -0.247 ± 0.53
AFSSLFWIWIPSNMRSQVLK | 0.124 ± 0.42
AFTACRYMVSPFFSLMFSTS | 0.265 ± 1.1
AFVLRVNYNLNTRGYVSLFK | 2.14 ± 0.14
AFWLL | 1.81 ± 0.093
AGDTLWNGGMVEWFVWRLPG | 0.178 ± 0.74
AGIFQNSRRNPYRVYMMSVY | 3.31 ± 0.06
AGMGRSVWSKRFRDISRVSS | 0.511 ± 0.56
AGSLRR | 1.51 ± 0.41
AGVCCSVSNILWKCTSSSNG | 9.932 ± 0.023
AGWRLVTQDRLSLLNQTDVF | 1.05 ± 0.36
AGYDATW | 0.461 ± 0.65
AGYIVIALSRCCTDSRPNRV | inactive
AHSKHPGTYGQFMSEQSGEA | 0.767 ± 0.51
AIITLYSNHKLYLWALLLDA | -0.47 ± 1.1
AIKESRCDIVIRRKWSSLKT | -0.02 ± 1.1
AILSNVEVLYTRFRIKSCKL | -0.435 ± 0.34
AIRADTDFDYTIEGSVDGGG | -0.199 ± 0.63
AIRRYIVKAPLLCES | 1.75 ± 0.47
AIRVLCKEYSQSDRMNEWLN | inactive
AISILNCSMMLRIWPSTAAL | 0.059 ± 0.5
AISLYMFVRDIAKSILRQVC | 0.269 ± 0.5
AISPVGYCDSTFVFSTSLCG | 4.13 ± 0.12
AKFMGLCRDKGLQLC | -0.331 ± 0.55
AKPRYN | 0.221 ± 0.42

Substance | amyloid nucleation score
AKVACKDGLHACESESGFIW | 1.54 ± 0.3
AKVNCISIITEDILILSEMV | inactive
ALCGCPCRKPSATVINLPLF | 0.165 ± 0.37
ALDFSRSRDKGG | 1.42 ± 0.23
ALERWS | 0.024 ± 0.74
ALFIRVYMLFRRCEECSLQV | 7.575 ± 0.055
ALGSRSTDSGSWITNFLSSR | -0.213 ± 0.79
ALGVGVDFVKVWRNRGLAGG | 0.459 ± 0.51
ALMEKSTSNLLFCHLDCASD | 3.24 ± 0.071
ALMHTNGTV | -0.406 ± 1.1
ALMNPHFFSWCLKMVGYGYR | inactive
ALNYVSCWNALRKFRESVAH | inactive
ALPVLIINERTRWGVTLLLP | 0.421 ± 0.39
ALRVLFLVVWSEHDDCYCGG | 0.665 ± 0.42
ALSSFT | -1.28 ± 0.78
ALTPGYPSGARVP | 0.307 ± 0.49
ALWFLLKQSGARYLDLAIPG | -0.06 ± 1.1
AMLDLRINTSRAGSHSRVVT | 2.81 ± 0.069
AMQLCSFTPFSTYNFLSYDS | -0.685 ± 0.37
AMSFGCSAWYTSYRDMFCRG | 3.17 ± 0.15
ANFQIFDLLME | -0.061 ± 0.43
ANLLKTRRVMYRGFG | 0.611 ± 0.38
ANMCELVLLELVIELRGGLA | 3.28 ± 0.088
ANMCPYAHRVTGVMFCLLPW | inactive
ANNVSGIIVCTNFDILMYGR | 7.791 ± 0.042
